Tests used:
[1] = biological target: T1, rDR5-IgG4 (recombinant wild type DR5 with IgG4 Fc) (UniProt O14763 56-210, biotinylated for BLI (site not stated)); experiment: BLI
[2] = biological target: T1, rDR5-IgG4 (recombinant wild type DR5 …); experiment: ELISA
[3] = biological target: R104Y DR5; experiment: BLI
[4] = biological target: T1, rDR5-IgG4 (recombinant wild type DR5 …); experiment: BLI; remark: listed apart in the source
[5] = biological target: R104W DR5; experiment: BLI
[6] = biological target: T1, rDR5-IgG4 (recombinant wild type DR5 …); experiment: ELISA; remark: listed apart in the source
[7] = biological target: KKCR; experiment: ELISA
[8] = biological target: RKCSR DR5; experiment: BLI
[9] = biological target: RKCAR DR5; experiment: BLI
[10] = biological target: Monkey DR5; experiment: BLI
[11] = biological target: Chimp DR5; experiment: BLI
[12] = biological target: DR5 (3RA); experiment: ELISA
[13] = biological target: DR5 (WT) (UniProt O14763 56-210, biotinylated for BLI (site not stated)); experiment: ELISA
[14] = biological target: rDR5-IgG4-Fc SGE:AAA (135-137) NS Mut; experiment: BLI
[15] = biological target: rDR5-IgG4-Fc EMCR:AACR (98-101) Mut (90s Mut) (UniProt O14763 56-210, biotinylated for BLI (site not stated)); experiment: BLI
[16] = biological target: rDR5-IgG4-Fc (UniProt O14763 56-210, biotinylated for BLI (site not stated)); experiment: BLI
[17] = biological target: rDR5-IgG4-Fc KYGQ:AAGA (45-48) Mut; experiment: BLI

Sequence of R104W DR5 (chain, as listed by the source R104W): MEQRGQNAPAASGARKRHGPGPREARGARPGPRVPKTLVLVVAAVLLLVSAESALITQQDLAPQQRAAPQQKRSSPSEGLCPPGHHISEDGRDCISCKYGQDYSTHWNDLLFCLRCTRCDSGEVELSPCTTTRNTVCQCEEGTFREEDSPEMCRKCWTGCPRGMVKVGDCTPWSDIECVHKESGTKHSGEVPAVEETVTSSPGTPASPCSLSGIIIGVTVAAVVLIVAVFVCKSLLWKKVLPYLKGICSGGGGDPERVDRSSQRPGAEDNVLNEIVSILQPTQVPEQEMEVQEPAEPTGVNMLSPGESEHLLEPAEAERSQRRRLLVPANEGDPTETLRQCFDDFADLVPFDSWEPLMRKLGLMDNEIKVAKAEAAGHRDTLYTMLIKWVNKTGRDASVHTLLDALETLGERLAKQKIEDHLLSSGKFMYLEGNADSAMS
Sequence of R104Y DR5 (chain, as listed by the source R104Y): as the sequence (chain, as listed by the source R104W) above, with W157Y counted along it

B1: lexatumumab (antibody, V domains shown)
VH: EVQLVQSGGGVERPGGSLRLSCAASGFTFDDYGMSWVRQAPGKGLEWVSGINWNGGSTGYADSVKGRVTISRDNAKNSLYLQMNSLRAEDTAVYYCAKILGAGRGWYFDLWGKGTTVTVSS
VL: SSELTQDPAVSVALGQTVRITCQGDSLRSYYASWYQQKPGQAPVLVIYGKNNRPSGIPDRFSGSSSGNTASLTITGAQAEDEADYYCNSRDSSGNHVVFGGGTKLTVL
Kd [1]: 519 pM | Kd [2]: 32 pM | Kd [3]: 1930 pM | Kd [4]: 37.6 pM | Kd [5]: 1820 pM | Kd [6]: 81 pM

B2: Antibody (antibody, V domains shown)
VH: B1 VH
VL: B1 VL
Kd [7]: 1190 pM

B3: Biot-Lexa (antibody, V domains shown)
VH: B1 VH
VL: B1 VL
Kd [8]: 215 pM | Kd [9]: 266 pM | Kd [10]: 14 pM | Kd [11]: < 1 pM

B4: KMTR2 (antibody, V domains shown)
VH: QVQLVQSGAEMKKPGASVKVSCKTSGYTFTNYKINWVRQAPGQGLEWMGWMNPDTDSTGYPQKFQGRVTMTRNTSISTAYMELSSLRSEDTAVYYCARSYGSGSYYRDYYYGMDVWGQGTTVTVSS
VL: EIVLTQSPATLSLSPGERATLSCRASQSVSSYLAWYQQKPGQAPRLLIYDASNRATGIPARFSGSGSGTDFTLTISSLEPEDFAVYYCQQRSNWPLTFGGGTKVEIKR
Kd [12]: 87 pM | Kd [13]: 88 pM | koff [14]: 2.01e-05 s⁻¹ | koff [15]: 1.61e-05 s⁻¹ | Kd [16]: < 1 pM | koff [17]: 1e-07 s⁻¹

Source: patent publication US20250376532A1 (published 2025)
